{
  "source": "the nanobody polyreactivity screen of Harvey et al. (2022)",
  "data": [
    {"test": "yeast display, Sf9 membrane polyspecificity reagent, FACS + sequencing; frameworks hold sequencing errors", "how_it_was_run": "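Galactose induction of a Saccharomyces cerevisiae BJ5465 synthetic nanobody display library ran 36–48 hours. The cells were then stained for 1 hour at 4 °C with 10% biotinylated, detergent-solubilized Sf9 membrane reagent, pulled down on streptavidin microbeads and FACS-sorted into low and high (top ~1%) gates on expression and reagent-binding fluorescence. Labels for polyreactivity follow the gate of origin.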", "values": [
      {"sequence": "QVQLVESGGGLVQAGGSLRLSCAASGSIFWAYTMGWYRQAPGKERELVAAISASGGSTYYADSVKGRFTISRDNAKNTFYLQMNSLKPEDTAVYYCNKDYHRPYGGGSKGDYWGQGTQVTVSS", "polyreactivity (PSR sort gate)": "low polyreactivity"},
      {"sequence": "QVQLVESGGGLVQAGGSLRLSCAASGSIFWFNAMGWYRQAPGKERELVAAIRRIGGSTYYADSVKGRFTISRDNAKNTVYLQMNSLKPEDTAVYYCAAGVTFRGASYGYWGQGTQVTVSS", "polyreactivity (PSR sort gate)": "high polyreactivity"},
      {"sequence": "QVQLVESGGGLVQAGGSLRLSCAASGSIFWFYAMGWYRQAPGKERELVAAISYSGGITYYADSVKGRFTISRDNAKNTVYLQMNSLKPEDTAVYYCNADGPSTPWVDYGYWGQGTQVTVSS", "polyreactivity (PSR sort gate)": "low polyreactivity"},
      {"sequence": "QVQLVESGGGLVQAGGSLRLSCAASGSIFWGNAMGWYRPAPGKERELVASISDSGGSTYADSVKGRFTISRDNAKNTVYLQMNSLKPEDTAVYYCAADDWYSAGIRNWYYGGYDYWGQGTQVTVSS", "polyreactivity (PSR sort gate)": "low polyreactivity"},
      {"sequence": "QVQLVESGGGLVQAGGSLRLSCAASGSIFWGNAMGWYRQAPGKEREMVAAITWSGGSTYYADSVKGRFTISRDNAKNTVYLQMNSLKPEDTAVYYCYAVYIGSRRRYEYDYWGQGTQVTVSS", "polyreactivity (PSR sort gate)": "high polyreactivity"},
      {"sequence": "QVQLVESGGGLVQAGGSLRLSCAASGSIFWGYAMGWYRPAPGKERELVATIRNRGGSTYYADSVKGRFTISRDNAKNTVYLQMNSLKPEDTAVYYCAAVSYRQYYGWGNYWGQGTQVTVSS", "polyreactivity (PSR sort gate)": "low polyreactivity"},
      {"sequence": "QVQLVESGGGLVQAGGSLRLSCAASGSIFWGYAMGWYRQAPGKERELVAAIRNGGSTNYADSVKGRFTISRDNAKNTVYLQMNSLKPEDTAVYYCAKYYYYLRSARKYDYWGQGTQVTVSS", "polyreactivity (PSR sort gate)": "high polyreactivity"},
      {"sequence": "QVQLVESGGGLVQAGGSLRLSCAASGSIFWGYAMGWYRQAPGKERELVASSTNYADSVKGRFTISRDNAKNTVYLQMNSLKPEDTAVYYCAREQGVNRNHDYWGQGTQVTVSS", "polyreactivity (PSR sort gate)": "low polyreactivity"},
      {"sequence": "QVQLVESGGGLVQAGGSLRLSCAASGSIFWGYAMGWYRQAPGKERELVAVITWSVGRTYYADSVKGRFTISRDNAKNTVYLQMNSLKPEDTAVYYCNAKSWYGGSYYRYDYWGQGTQVTVSS", "polyreactivity (PSR sort gate)": "low polyreactivity"},
      {"sequence": "QVQLVESGGGLVQAGGSLRLSCAASGSIFWIYAMGCYRQAPGKERELVATITRRGGSTYYADSVKGRFTISRDNAKNTVYLQMNSLKPEDTAVYYCATEPGYTYLTSYKYDYWGQGTQVTVSS", "polyreactivity (PSR sort gate)": "low polyreactivity"},
      {"sequence": "QVQLVESGGGLVQAGGSLRLSCAASGSIFWKNVMGSYRQAPGKERELVAGISQNGGSTTYADSVKGRFTISRDNAKNTVYLQMNSLKPEDTAVYYCAAKRYGPFKYGYWGQGTQVTVSS", "polyreactivity (PSR sort gate)": "high polyreactivity"},
      {"sequence": "QVQLVESGGGLVQAGGSLRLSCAASGSIFWKYAMGWYRQAPGKERELVAAISRSSSTTYYADSVKGRFTISRDNAKNTVYLQMNSLKPEDTAVYYCAAYYRSRVSDDYWGQGTQVTVSS", "polyreactivity (PSR sort gate)": "high polyreactivity"},
      {"sequence": "QVQLVESGGGLVQAGGSLRLSCAASGSIFWLYAMGWYRQAPGKERELVAAITRRGGSTYYADSVKGRFTISRDNAKNTVYLQMNSLKPEDTAVYYCNRLYYSGSGASLDYWGQGTQVTVSS", "polyreactivity (PSR sort gate)": "high polyreactivity"},
      {"sequence": "QVQLVESGGGLVQAGGSLRLSCAASGSIFWLYAMGWYRQAPGKERELVAAITWSGGRTYYADSVKGRFTISRDNAKNTVYLQMNSLKPEDTAVYYCARRQWPWYSNPARGGKYDYWGQGTQVTVSS", "polyreactivity (PSR sort gate)": "low polyreactivity"},
      {"sequence": "QVQLVESGGGLVQAGGSLRLSCAASGSIFWNNAMGWYIQAPGKEREWVAGISSAGSTNYADSVKGRFTISRDNAKNTVYLQMNSLKPEDTAVYYCAASYFRDYVWLRSNVRYYYWGQGTQVTVSS", "polyreactivity (PSR sort gate)": "low polyreactivity"},
      {"sequence": "QVQLVESGGGLVQAGGSLRLSCAASGSIFWQTPMGWYRQAPGKERELVAAITRSGGSTYYADSVKGRFTISRDNAKITVYLQMNSLKPEDTLVYYCKKYGYKGGVGDDYWGQGTQVTVSS", "polyreactivity (PSR sort gate)": "high polyreactivity"},
      {"sequence": "QVQLVESGGGLVQAGGSLRLSCAASGSIFWRYAMGWYRQAPGKERELVAVISRSGGRTYYADSVKGRFTISRDNAKNTVYLQMNSLKPEDTAVNYCAADYYGVYSKRYGFDYWGQGTQVTVSS", "polyreactivity (PSR sort gate)": "high polyreactivity"}
    ]}
  ]
}
